From paper PMC8341435 come the findings set out here.

The target of assay [1] is HIV-1 CAP256 SU gp140 NFL, mammalian cell-produced (HEK293) (HIV-1 (CAP256 SU virus)). The assay is described as follows: SEC. In general terms: Size exclusion chromatography separates by hydrodynamic size, large species first.
The target is the same in assay [2]. Briefly: native gel or EMSA; BN-PAGE of the pooled trimer fractions on 4-12% NativePAGE Bis-Tris gels, Coomassie-stained. A general note: Mobility shift assays separate free from complexed probe on a gel.
In assay [3] the target is HIV-1 CAP256 SU gp140 NFL, plant-produced (Nicotiana benthamiana) (HIV-1 (CAP256 SU virus)). The assay is described as follows: SEC.

As usually defined, the stoichiometry N is a count of units in the complex or per binding partner.

For “HIV-1 CAP256 SU gp140 NFL, mammalian cell-produced (HEK293) (domain or fragment)”, the stoichiometry N in assay [1] and in assay [2] was 3 each time.
Take “HIV-1 CAP256 SU gp140 NFL, plant-produced (Nicotiana benthamiana) (domain or fragment)”: the stoichiometry N in assay [3] is 3.
